Assay results from paper PMC7156742, “RNA-DNA strand exchange by the Drosophila Polycomb complex PRC2”.

Key:
[1] = molecular target: PRC1ΔPh (UniProt P35820;P26017;Q9VB08 1-1601;1-390;1-435); assay: filter binding; 12 mM Hepes pH 7.9, 0.12 mM EDTA, 120 nM KCl (so in the source); probably mM), 1 mM DTT, 0.01% NP40, 12% glycerol, 0.01 nM probe, 30 min at 30 °C; EMSA plus 50 ng/uL BSA; conditions: protein: recombinant; tags: FLAG; copies: 1;1;1; label: Cy5 or Cy3 on DNA R; 32P at unlabelled 5' ends; blunt
[2] = molecular target: PRC2 (UniProt P42124;Q24338;Q9NJG9;Q24572 1-760;1-425;1-900;1-430); assay: as above; conditions: protein: recombinant; tags: 6xHis-E(Z); FLAG on Esc or Su(Z)12; copies: 1;1;1;1; label: Cy5 or Cy3 on DNA R; 32P at unlabelled 5' ends; blunt

Chain of PRC1ΔPh (P35820 whole entry, stated change not applied, chain 1 of 3): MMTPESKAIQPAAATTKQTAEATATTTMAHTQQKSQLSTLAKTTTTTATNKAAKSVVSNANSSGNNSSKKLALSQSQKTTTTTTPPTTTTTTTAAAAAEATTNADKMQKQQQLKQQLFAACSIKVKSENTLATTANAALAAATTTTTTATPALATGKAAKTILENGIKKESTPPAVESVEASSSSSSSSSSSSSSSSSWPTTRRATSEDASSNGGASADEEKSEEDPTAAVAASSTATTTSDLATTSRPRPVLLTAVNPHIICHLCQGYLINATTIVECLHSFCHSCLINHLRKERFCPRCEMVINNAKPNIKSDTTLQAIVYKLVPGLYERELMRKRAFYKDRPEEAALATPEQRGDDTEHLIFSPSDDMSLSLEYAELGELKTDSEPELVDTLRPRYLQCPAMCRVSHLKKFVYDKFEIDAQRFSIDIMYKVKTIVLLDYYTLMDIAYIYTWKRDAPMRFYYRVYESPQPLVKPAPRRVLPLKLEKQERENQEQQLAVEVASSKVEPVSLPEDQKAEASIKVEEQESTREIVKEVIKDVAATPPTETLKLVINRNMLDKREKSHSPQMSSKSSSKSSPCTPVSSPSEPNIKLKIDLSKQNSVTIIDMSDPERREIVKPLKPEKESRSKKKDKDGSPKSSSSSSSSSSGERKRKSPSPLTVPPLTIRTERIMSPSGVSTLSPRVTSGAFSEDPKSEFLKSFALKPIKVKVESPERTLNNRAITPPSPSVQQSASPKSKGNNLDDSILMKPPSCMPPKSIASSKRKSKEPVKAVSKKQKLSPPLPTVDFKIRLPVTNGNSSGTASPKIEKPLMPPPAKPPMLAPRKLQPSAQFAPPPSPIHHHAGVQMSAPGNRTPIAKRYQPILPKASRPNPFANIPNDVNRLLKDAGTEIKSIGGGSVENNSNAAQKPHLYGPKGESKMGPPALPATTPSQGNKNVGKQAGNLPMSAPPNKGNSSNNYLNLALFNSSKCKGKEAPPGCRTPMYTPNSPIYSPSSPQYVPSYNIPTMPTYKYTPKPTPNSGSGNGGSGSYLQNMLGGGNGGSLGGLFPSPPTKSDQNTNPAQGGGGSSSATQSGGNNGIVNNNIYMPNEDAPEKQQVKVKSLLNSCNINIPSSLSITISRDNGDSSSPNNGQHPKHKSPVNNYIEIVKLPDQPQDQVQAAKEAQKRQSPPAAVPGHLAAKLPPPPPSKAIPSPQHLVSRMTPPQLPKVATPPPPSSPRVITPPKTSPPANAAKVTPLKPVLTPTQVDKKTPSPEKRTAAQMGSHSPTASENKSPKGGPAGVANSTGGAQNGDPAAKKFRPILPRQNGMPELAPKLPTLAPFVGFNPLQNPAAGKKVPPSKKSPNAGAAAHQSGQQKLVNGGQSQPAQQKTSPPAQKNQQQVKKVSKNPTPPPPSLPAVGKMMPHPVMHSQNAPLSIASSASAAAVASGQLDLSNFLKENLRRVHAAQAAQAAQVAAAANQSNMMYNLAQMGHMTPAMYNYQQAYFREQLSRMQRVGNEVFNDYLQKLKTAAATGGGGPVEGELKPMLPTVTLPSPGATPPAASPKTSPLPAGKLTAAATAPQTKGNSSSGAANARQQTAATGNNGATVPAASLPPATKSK
Chain of PRC1ΔPh (P26017 whole entry, stated change not applied, chain 2 of 3): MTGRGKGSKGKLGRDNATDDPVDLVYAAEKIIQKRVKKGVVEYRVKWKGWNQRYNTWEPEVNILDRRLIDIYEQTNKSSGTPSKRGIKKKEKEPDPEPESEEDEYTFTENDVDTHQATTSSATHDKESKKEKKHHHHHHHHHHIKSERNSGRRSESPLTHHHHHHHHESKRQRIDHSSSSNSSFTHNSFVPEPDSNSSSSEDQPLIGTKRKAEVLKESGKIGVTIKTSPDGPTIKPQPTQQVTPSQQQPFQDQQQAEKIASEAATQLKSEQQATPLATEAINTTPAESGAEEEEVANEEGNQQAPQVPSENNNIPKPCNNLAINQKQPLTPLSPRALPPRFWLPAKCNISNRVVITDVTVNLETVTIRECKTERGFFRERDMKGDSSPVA
Chain of PRC1ΔPh (Q9VB08 whole entry, stated change not applied, chain 3 of 3): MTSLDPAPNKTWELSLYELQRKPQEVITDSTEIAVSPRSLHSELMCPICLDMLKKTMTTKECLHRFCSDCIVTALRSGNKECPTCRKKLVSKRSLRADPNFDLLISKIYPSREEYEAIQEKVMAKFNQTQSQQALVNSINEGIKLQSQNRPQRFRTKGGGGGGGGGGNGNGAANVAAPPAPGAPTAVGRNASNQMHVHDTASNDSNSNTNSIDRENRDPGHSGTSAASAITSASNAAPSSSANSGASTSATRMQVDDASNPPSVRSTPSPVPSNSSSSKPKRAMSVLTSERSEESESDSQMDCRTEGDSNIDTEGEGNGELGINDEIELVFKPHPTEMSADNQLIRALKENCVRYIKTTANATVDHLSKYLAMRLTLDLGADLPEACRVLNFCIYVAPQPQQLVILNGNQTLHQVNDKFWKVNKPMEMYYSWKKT

B1: vg PRE dsDNA (dsDNA)
DNA 1: CGGGTTGTCAAGAATTTTAACGGCCATTTCTGTGAGTGTGTGCGAGCTGCCAAGTGTGTGTGAGTGTGTTTGTGACAAACGCAAGCTCATGTAAGTGCTC
DNA 2: GAGCACTTACATGAGCTTGCGTTTGTCACAAACACACTCACACACACTTGGCAGCTCGCACACACTCACAGAAATGGCCGTTAAAATTCTTGACAACCCG
Kd [1]: 0.164 nM | Kd [2]: 6.44 nM
